This note sets out measurements from US20200024330A1.

Where only a bound is given, the exact number is not on record here.

What all share (test): cell-based or functional assay
Experiment [1] concerns the target HIV-1 92UG024 envelope glycoprotein (Env) on pseudovirus (HIV-1).
In experiment [2] the target is HIV-1 MGRM-D-018 envelope glycoprotein (Env) on pseudovirus (HIV-1).
For experiment [3], the target named is HIV-1 92TH021 envelope glycoprotein (Env) on pseudovirus (HIV-1).
Experiment [4] deals with HIV-1 Env of isolate MGRM-C-026 (HIV-1).
Experiment [5] deals with HIV-1 Env of isolate JRCSF (HIV-1) (UniProt P20871).
Experiment [6] addresses HIV-1 Env of isolate 92TH021 (HIV-1).
For experiment [7], the target named is HIV-1 Env of isolate MGRM-F1-008 (HIV-1).
Experiment [8] has as its target HIV-1 Env of isolate MGRM-D-021 (HIV-1).
The target in experiment [9] is HIV-1 Env of isolate QH0692.42 (HIV-1).
Experiment [10] deals with HIV-1 Env of isolate MGRM-F1-014 (HIV-1).
Experiment [11] addresses HIV-1 Env of isolate MGRM-Chronic-B-024 (HIV-1).
For experiment [12], the target named is HIV-1 Env of isolate MGRM-Chronic-B-018 (HIV-1).
The target of experiment [13] is HIV-1 Env of isolate MGRM-D-022 (HIV-1).
The target of experiment [14] is HIV-1 Env of isolate TRJ04551.58 (HIV-1).
Experiment [15] addresses HIV-1 Env of isolate PVO.4 (HIV-1).
For experiment [16], the target named is HIV-1 Env of isolate MGRM-Chronic-B-020 (HIV-1).
Experiment [17] deals with HIV-1 Env of isolate MGRM-Chronic-B-012 (HIV-1).
Experiment [18] has as its target HIV-1 Env of isolate MGRM-F1-023 (HIV-1).
The target in experiment [19] is HIV-1 Env of isolate MGRM-Chronic-B-011 (HIV-1).
Experiment [20] deals with HIV-1 Env of isolate MGRM-F1-010 (HIV-1).
Experiment [21] deals with HIV-1 Env of isolate MGRM-D-011 (HIV-1).
In experiment [22] the target is HIV-1 Env of isolate MGRM-Chronic-B-023 (HIV-1).
Experiment [23] has as its target HIV-1 Env of isolate SF162 (HIV-1) (UniProt P19550).
In experiment [24] the target is HIV-1 Env of isolate MGRM-D-020 (HIV-1).
The target in experiment [25] is HIV-1 Env of isolate TRO.11 (HIV-1).
In experiment [26] the target is HIV-1 Env of isolate MGRM-D-026 (HIV-1).
In experiment [27] the target is HIV-1 Env of isolate 93MW959 (HIV-1).
Experiment [28] concerns the target HIV-1 Env of isolate MGRM-D-016 (HIV-1).
Experiment [29] deals with HIV-1 Env of isolate MGRM-F1-013 (HIV-1).
Experiment [30] concerns the target HIV-1 Env of isolate MGRM-F1-021 (HIV-1).
The target of experiment [31] is HIV-1 Env of isolate 97ZA012 (HIV-1).
Experiment [32] has as its target HIV-1 Env of isolate MGRM-F1-004 (HIV-1).
Experiment [33] addresses HIV-1 Env of isolate MGRM-D-012 (HIV-1).
Experiment [34] concerns the target HIV-1 Env of isolate MGRM-F1-012 (HIV-1).
For experiment [35], the target named is HIV-1 Env of isolate VLGCB3 (HIV-1).
The target in experiment [36] is HIV-1 Env of isolate MGRM-F1-020 (HIV-1).
In experiment [37] the target is HIV-1 Env of isolate NL43 (HIV-1).
In experiment [38] the target is HIV-1 Env of isolate 93IN905 (HIV-1).
Experiment [39] deals with HIV-1 Env of isolate SC422661.8 (HIV-1).
Experiment [40] has as its target HIV-1 Env of isolate MGRM-F1-018 (HIV-1).
Experiment [41] addresses HIV-1 Env of isolate MGRM-D-019 (HIV-1).
In experiment [42] the target is HIV-1 Env of isolate MGRM-D-028 (HIV-1).
The target in experiment [43] is HIV-1 Env of isolate MGRM-D-024 (HIV-1).
For experiment [44], the target named is HIV-1 Env of isolate MGRM-F1-006 (HIV-1).
For experiment [45], the target named is HIV-1 Env of isolate 98IN022 (HIV-1).
Experiment [46] deals with HIV-1 Env of isolate MGRM-Chronic-B-010 (HIV-1).
For experiment [47], the target named is HIV-1 Env of isolate MGRM-F1-015 (HIV-1).
The target in experiment [48] is HIV-1 Env of isolate MGRM-D-013 (HIV-1).
Experiment [49] concerns the target HIV-1 Env of isolate THR0.18 (HIV-1).
The target in experiment [50] is HIV-1 Env of isolate MGRM-F1-022 (HIV-1).
The target in experiment [51] is HIV-1 Env of isolate MGRM-D-029 (HIV-1).
The target of experiment [52] is HIV-1 Env of isolate MGRM-D-014 (HIV-1).
Experiment [53] deals with HIV-1 Env of isolate MGRM-F1-017 (HIV-1).
The target in experiment [54] is HIV-1 Env of isolate MGRM-F1-016 (HIV-1).
The target of experiment [55] is HIV-1 Env of isolate MGRM-Chronic-B-017 (HIV-1).
In experiment [56] the target is HIV-1 Env of isolate MGRM-D-018 (HIV-1).

PGT-141 (antibody), sequence (VH): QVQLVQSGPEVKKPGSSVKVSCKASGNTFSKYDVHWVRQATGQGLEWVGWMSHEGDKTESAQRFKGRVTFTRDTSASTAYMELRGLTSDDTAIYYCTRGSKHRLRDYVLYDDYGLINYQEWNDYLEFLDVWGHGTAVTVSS
PGT-141 (antibody), sequence (VL): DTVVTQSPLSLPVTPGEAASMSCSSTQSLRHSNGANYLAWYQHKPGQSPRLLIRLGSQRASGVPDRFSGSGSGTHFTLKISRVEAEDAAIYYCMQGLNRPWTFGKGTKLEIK
PGT-142 (antibody), sequence (VH): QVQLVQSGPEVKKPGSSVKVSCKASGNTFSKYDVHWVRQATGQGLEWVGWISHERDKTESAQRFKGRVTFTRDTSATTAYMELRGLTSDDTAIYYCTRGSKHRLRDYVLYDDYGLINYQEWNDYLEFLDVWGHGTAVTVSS
PGT-142 (antibody), sequence (VL): as the sequence (VL) above

As for “1496_C09 (PG9) (TCN-109) monoclonal antibody”, the figures for the IC50, pseudovirus neutralization in experiment [1], in [2] and in experiment [3] were 1.91 µg/mL, 0.0444 µg/mL and 0.103 µg/mL, respectively.

On to “PGT-132 (B cell culture well 5113_D22) (antibody)”, for which the figures for the Primary Neutralization Index (B cell culture well 5113 D22) in experiment [4], in experiment [5] and in experiment [6] were 6, 3 and 51, respectively.

In the case of “PGT-133 (B cell culture well 5117_E22) (antibody)”, the Primary Neutralization Index (B cell culture well 5117 E22) is 3.4 in experiment [4], 3.6 in experiment [5] and 42.5 in [6].

Consider PGT-141 (antibody), for which the IC50, pseudovirus neutralization in experiment [7] was 0.193 µg/mL; in [8] it was more than 50 µg/mL; in [10], 0.001 µg/mL; in experiment [13], more than 50 µg/mL; in [18] it was 0.307 µg/mL; in experiment [20] it was more than 50 µg/mL. For the same substance, the IC50, pseudovirus neutralization in experiment [21] was more than 50 µg/mL; in experiment [24], more than 50 µg/mL; in experiment [26], 32.5 µg/mL; in [28], more than 50 µg/mL; in experiment [29], 0.043 µg/mL; in experiment [30], more than 50 µg/mL. Moreover, the IC50, pseudovirus neutralization is 0.021 µg/mL in experiment [32]; more than 50 µg/mL in [33]; more than 50 µg/mL in [34]; 1.15 µg/mL in experiment [36]; 0.785 µg/mL in experiment [40]; 1.66 µg/mL in experiment [41]. For the same substance, the IC50, pseudovirus neutralization in experiment [42] is less than 50 µg/mL; in experiment [43], more than 50 µg/mL; in experiment [44], 8.99 µg/mL; in [47], more than 50 µg/mL; in [48], 0.179 µg/mL; in [50], 0.114 µg/mL. Further, the IC50, pseudovirus neutralization in experiment [51] was 0.057 µg/mL; in experiment [52], 0.01 µg/mL; in experiment [53], 30.8 µg/mL; in [54] it was more than 50 µg/mL; in experiment [56], more than 50 µg/mL. The neutralization IC50 in experiment [9] was more than 50 µg/mL; in experiment [11] it was 0.011 µg/mL; in [12], 0.572 µg/mL; in experiment [14] it was more than 50 µg/mL; in [15], 0.113 µg/mL; in experiment [16], more than 50 µg/mL. Moreover, the neutralization IC50 in [17] was more than 50 µg/mL; in experiment [19], 2.24 µg/mL; in experiment [22], 0.318 µg/mL; in [23], more than 50 µg/mL; in [5], 0.009 µg/mL; in [25], 0.383 µg/mL. The neutralization IC50 was 0.003 µg/mL in [27]; more than 50 µg/mL in experiment [31]; more than 50 µg/mL in experiment [35]; more than 50 µg/mL in experiment [37]; 0.001 µg/mL in [38]; 1.66 µg/mL in experiment [39]. The neutralization IC50 in experiment [45] was 0.001 µg/mL; in experiment [46], more than 50 µg/mL; in experiment [49], 0.007 µg/mL; in experiment [55] it was 0.147 µg/mL.

Consider PGT-142 (antibody), for which the IC50, pseudovirus neutralization is 0.124 µg/mL in experiment [7]; more than 50 µg/mL in experiment [8]; 0.001 µg/mL in [10]; more than 50 µg/mL in [13]; 0.602 µg/mL in experiment [18]; more than 50 µg/mL in [20]. Further, the IC50, pseudovirus neutralization in experiment [21] is more than 50 µg/mL; in [24] it was more than 50 µg/mL; in experiment [26], 12.5 µg/mL; in experiment [28], more than 50 µg/mL; in experiment [29], 0.023 µg/mL; in [30], more than 50 µg/mL. Further, the IC50, pseudovirus neutralization in [32] is 0.013 µg/mL; in experiment [33], more than 50 µg/mL; in [34], more than 50 µg/mL; in experiment [36], 0.824 µg/mL; in experiment [40], 0.404 µg/mL; in experiment [41] it was 0.155 µg/mL. Moreover, the IC50, pseudovirus neutralization was more than 50 µg/mL in [42]; more than 50 µg/mL in experiment [43]; 12.9 µg/mL in [44]; more than 50 µg/mL in experiment [47]; 0.221 µg/mL in [48]; 0.04 µg/mL in [50]. The IC50, pseudovirus neutralization in experiment [51] is 0.192 µg/mL; in experiment [52] it was 0.005 µg/mL; in [53], 23.5 µg/mL; in experiment [54] it was more than 50 µg/mL; in experiment [56], more than 50 µg/mL. Moreover, the neutralization IC50 in experiment [9] was more than 50 µg/mL; in [11], 0.005 µg/mL; in [12], 0.323 µg/mL; in [14] it was more than 50 µg/mL; in experiment [15], 0.066 µg/mL; in experiment [16], more than 50 µg/mL. Also, the neutralization IC50 in experiment [17] was more than 50 µg/mL; in [19] it was 0.994 µg/mL; in experiment [22], 0.486 µg/mL; in [23] it was more than 50 µg/mL; in experiment [5], 0.01 µg/mL; in [25], 0.27 µg/mL. The neutralization IC50 in experiment [27] is 0.001 µg/mL; in experiment [31], more than 50 µg/mL; in experiment [35], more than 50 µg/mL; in experiment [37], more than 50 µg/mL; in [38] it was 0.001 µg/mL; in experiment [39] it was 3.15 µg/mL. The neutralization IC50 was 0.001 µg/mL in experiment [45], more than 50 µg/mL in experiment [46], 0.012 µg/mL in [49] and 0.076 µg/mL in [55].
